Here are results for two molecules from paper PMC9401620.

For the data set, the target named is T1, RBM46 (mouse, UniProt P86049 1-533).
T1 sequence: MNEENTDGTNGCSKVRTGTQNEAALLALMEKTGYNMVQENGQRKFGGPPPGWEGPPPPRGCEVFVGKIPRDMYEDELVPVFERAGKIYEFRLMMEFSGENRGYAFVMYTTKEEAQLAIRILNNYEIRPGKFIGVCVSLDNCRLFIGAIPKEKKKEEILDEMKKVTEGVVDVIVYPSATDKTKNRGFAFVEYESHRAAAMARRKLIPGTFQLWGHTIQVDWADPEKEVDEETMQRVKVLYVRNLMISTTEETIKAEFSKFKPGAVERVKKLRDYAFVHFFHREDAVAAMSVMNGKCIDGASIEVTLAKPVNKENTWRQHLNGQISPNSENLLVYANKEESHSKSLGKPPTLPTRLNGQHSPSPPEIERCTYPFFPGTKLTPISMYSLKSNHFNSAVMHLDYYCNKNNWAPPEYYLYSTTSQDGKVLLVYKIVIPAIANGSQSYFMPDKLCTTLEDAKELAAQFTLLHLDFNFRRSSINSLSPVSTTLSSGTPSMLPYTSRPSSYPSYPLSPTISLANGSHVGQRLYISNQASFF
The data set can be described thus: EMSA. A general note: Mobility shift assays separate free from complexed probe on a gel.

B1: RNA probe without RBM46-binding motif (ssRNA)
RNA: UGUUUGAAACAGGAGUCGCU
B1: the binding result is recorded as “no binding”.

B2: Ccna2 3'UTR RNA probe (ssRNA)
RNA: UUGUGAAACUAAAACCCGAC
Regarding B2, the binding result was “binds”.
